Assay results as given in the supplement of paper PMC10567573.

B1: INTS3 (parent)
chain: DLNSKGKKREFRFHPIKETVVEEP

Variants of: B1
Assay: protein stability index of a GFP-peptide fusion (GPS, HEK-293T) (PSI 1-6); higher = more stable
Conditions: c terminus: a fixed tail appended
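Further: lentivirally expressed fusions sorted by FACS into six bins by GFP to DsRed ratio, PSI derived from sequencing read proportions per bin multiplied by bin number.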

Variant	protein stability index
R9Q	2.83
R9M	1.78
R9A	2.87
R9K	3.07
R9G	2.41
R9C	2.31
R9N	2.49
R9V	2.37
R9T	2.56
R9S	2.53
R9P	2.34
R9F	1.65
R9W	2.21
R9L	1.78
R9I	2.35
R9D	4.09
R9E	3.73
R9Y	2.31
R9H	1.79
G6K	1.74
G6H	2.74
G6L	1.52
G6T	2.38
G6P	2.42

Variant	protein stability index
G6R	1.33
G6V	2.56
G6D	2.29
G6W	2.12
G6Y	1.95
G6N	2.37
G6E	2.25
G6C	2.23
G6I	1.59
G6Q	2.3
G6S	2.03
G6A	2.02
G6M	2.4
G6F	1.74
H14D	4.59
H14K	3.91
H14I	3.57
H14M	3.53
H14P	4.35
H14Y	3.74
H14F	3.34
H14W	3.44
H14E	4.13
H14L	4.01

Variant	protein stability index
H14N	3.84
H14V	2.73
H14G	4.02
H14R	3.88
H14Q	3.78
H14T	3.7
H14A	3.83
H14C	3.36
H14S	3.89
V20H	2.6
V20M	2.25
V20F	1.9
V20W	3.44
V20E	2.54
V20A	2.3
V20T	2.09
V20Y	1.92
V20I	1.97
V20D	2.87
V20G	2.07
V20L	1.99
V20R	1.77
V20C	2.29
V20P	2.73

Variant	protein stability index
V20K	2.16
V20Q	2.65
V20S	2.07
V20N	2.37
P15A	2.96
P15Q	2.6
P15W	2.28
P15C	2.54
P15M	2.29
P15E	3.2
P15L	2.82
P15T	2.96
P15I	2.65
P15G	3.15
P15R	2.9
P15V	3.25
P15H	3.09
P15N	3.65
P15D	3.57
P15Y	2.74
P15S	2.37
P15F	2.44
P15K	3.18
V21W	1.64

Variant	protein stability index
V21G	1.97
V21F	1.96
V21L	2.54
V21H	2.12
V21I	1.99
V21N	2.36
V21D	2.71
V21E	3.15
V21C	2.49
V21R	1.6
V21Q	2.06
V21T	2.62
V21A	2.01
V21P	2.22
V21M	2.08
V21K	2.01
V21Y	2
V21S	2.1
F13G	4.31
F13C	3.94
F13H	3.75
F13I	3.78
F13S	4.27
F13T	4.02

Variant	protein stability index
F13D	4.71
F13E	4.75
F13M	4.25
F13P	4.48
F13L	4.78
F13W	3.72
F13A	4.44
F13Y	2.47
F13N	4.65
F13R	3.99
F13V	4.47
F13Q	4.5
F13K	4.06
E18R	1.87
E18G	2.1
E18W	2.75
E18T	2.7
E18I	1.96
E18S	1.94
E18Q	1.58
E18F	2.1
E18K	1.79
E18V	1.86
E18A	2.42

Variant	protein stability index
E18P	2.19
E18M	2.28
E18D	2.68
E18Y	2.41
E18N	1.63
E18C	2.48
E18L	2.83
E18H	2.13
K17Y	2
K17I	1.94
K17H	2.31
K17G	2.91
K17M	2.69
K17S	3.25
K17F	2.05
K17W	1.8
K17Q	3.01
K17R	1.69
K17C	2.67
K17L	3.26
K17P	1.98
K17E	3.48
K17A	2.5
K17D	3.93

Variant	protein stability index
K17V	2.69
K17N	2.6
K17T	2.77
E23A	1.81
E23D	2.45
E23I	2.24
E23G	2.13
E23C	3.71
E23F	1.71
E23H	1.99
E22A	2.22
E22G	1.79
E22W	2.11
E22S	1.92
E22P	1.96
E22M	1.57
E22V	1.69
E22H	1.91
E22N	1.69
E22K	2.1
E22F	2.01
E22Q	1.64
E22I	2.21
E22D	2.07

Variant	protein stability index
E22C	2.06
E22Y	1.87
E22L	1.91
E22R	1.75
E22T	1.79
R12A	4.15
R12H	4.2
R12W	3.02
R12G	4.24
R12S	4.04
R12Y	4.12
R12F	3.13
R12M	4.12
R12E	4.03
R12K	4.11
R12T	4.28
R12D	4.25
R12Q	4
R12C	3.99
R12V	3.55
R12N	3.74
R12P	4.07
R12L	3.57
R12I	3.79

Variant	protein stability index
K5W	2.32
K5V	2.76
K5T	2.39
K5Y	2.26
K7N	2.23
K7A	2.57
K7D	3.35
K7F	1.72
K7C	1.86
K7E	3.37
K7M	2.25
K7I	2.15
K7R	2.37
K7T	2.79
K7Q	2.54
K7S	2.48
K7G	2.28
K7L	1.62
K7V	2.54
K7H	2.35
K7P	1.94
K7Y	1.94
K7W	2.58
E10H	2.72

Variant	protein stability index
E10W	2.1
E10F	1.76
E10K	2.88
E10Y	1.49
E10C	2.97
E10L	1.94
E10R	1.96
E10T	1.99
E10I	1.78
E10N	2.58
E10G	2
E10Q	1.87
E10S	1.65
E10D	2.7
E10P	2.55
E10M	1.64
E10V	1.3
E10A	3.19
T19Q	1.96
T19L	2.74
T19I	1.94
T19M	2.31
T19W	2.05
T19H	2.42

Variant	protein stability index
T19G	2.62
T19S	2.12
T19R	2.04
T19P	1.74
T19K	2
T19C	2.34
T19F	2.2
T19D	2.87
T19N	2.31
T19A	2.07
T19V	1.86
T19Y	1.92
T19E	2.29
I16W	2.12
I16G	2.29
I16T	2.12
I16S	1.99
I16P	2.28
I16A	2.06
I16L	2.24
I16M	2.79
I16Q	2.34
I16V	2.71
I16R	1.77

Variant	protein stability index
I16E	2.96
I16K	2.21
I16F	1.88
I16Y	2.36
I16C	1.84
I16H	2.31
I16D	3.02
I16N	3.04
K8Y	2.27
K8H	2
K8R	1.52
K8P	1.94
K8V	1.73
K8T	2.36
K8C	1.98
K8N	2.54
K8M	1.93
K8W	2.27
K8S	2.23
K8D	3.35
K8G	2.08
K8A	1.74
K8L	1.96
K8I	2.24

Variant	protein stability index
K8Q	2.77
K8F	2.09
K8E	2.93
F11Q	4.11
F11H	4.31
F11K	4.46
F11E	4.94
F11V	4.02
F11S	4.39
F11N	4.13
F11T	4.87
F11G	4.32
F11M	4.45
F11R	4.28
F11P	4.39
F11Y	3.89
F11W	2.1
F11D	4.88
F11L	3.84
F11A	3.95
F11C	4.47
F11I	3.55
